Measurements from article PMC5931534, “Non-canonical activation of DAPK2 by AMPK constitutes a new pathway linking metabolic stress to autophagy” (Nature Communications, 2018).

Target: calmodulin (CaM) (UniProt P62157 1-149)
Assay: cell-based or functional assay

B1: FLAG-DAPK2 WT (enzyme)
chain: MFQASMRSPNMEPFKQQKVEDFYDIGEELGSGQFAIVKKCREKSTGLEYAAKFIKKRQSRASRRGVSREEIEREVSILRQVLHHNVITLHDVYENRTDVVLILELVSGGELFDFLAQKESLSEEEATSFIKQILDGVNYLHTKKIAHFDLKPENIMLLDKNIPIPHIKLIDFGLAHEIEDGVEFKNIFGTPEFVAPEIVNYEPLGLEADMWSIGVITYILLSGASPFLGDTKQETLANITAVSYDFDEEFFSQTSELAKDFIRKLLVKETRKRLTIQEALRHPWITPVDNQQAMVRRESVVNLENFRKQYVRRRWKLSFSIVSLCNHLTRSLMKKVHLRPDEDLRNCESDTEEDIARRKALHPRRRSSTS
  fold induction of the catalytic activity (MLC phosphorylation, in vitro kinase assay) upon addition of Ca2+/CaM against EGTA: 5.7 fold
